Reference: paper PMC4148199, “Multiple Regulation of Rad51-Mediated Homologous Recombination by Fission Yeast Fbh1” (PLoS Genetics, 2014)

T1: complex of 3FLAG6His-Fbh1 and 6His-Skp1 (S. pombe, UniProt Q9USU3 1-878; Q9Y709 1-161)
T1 construct: Fbh1 (F-box DNA helicase-1), Schizosaccharomyces pombe; Skp1, Schizosaccharomyces pombe; also called FLAG-His-tagged Fbh1-Skp1; Fbh1-Skp1 complex; source: insect cells, baculovirus co-infection, purified as a complex
T1 sequence (looked up) 1: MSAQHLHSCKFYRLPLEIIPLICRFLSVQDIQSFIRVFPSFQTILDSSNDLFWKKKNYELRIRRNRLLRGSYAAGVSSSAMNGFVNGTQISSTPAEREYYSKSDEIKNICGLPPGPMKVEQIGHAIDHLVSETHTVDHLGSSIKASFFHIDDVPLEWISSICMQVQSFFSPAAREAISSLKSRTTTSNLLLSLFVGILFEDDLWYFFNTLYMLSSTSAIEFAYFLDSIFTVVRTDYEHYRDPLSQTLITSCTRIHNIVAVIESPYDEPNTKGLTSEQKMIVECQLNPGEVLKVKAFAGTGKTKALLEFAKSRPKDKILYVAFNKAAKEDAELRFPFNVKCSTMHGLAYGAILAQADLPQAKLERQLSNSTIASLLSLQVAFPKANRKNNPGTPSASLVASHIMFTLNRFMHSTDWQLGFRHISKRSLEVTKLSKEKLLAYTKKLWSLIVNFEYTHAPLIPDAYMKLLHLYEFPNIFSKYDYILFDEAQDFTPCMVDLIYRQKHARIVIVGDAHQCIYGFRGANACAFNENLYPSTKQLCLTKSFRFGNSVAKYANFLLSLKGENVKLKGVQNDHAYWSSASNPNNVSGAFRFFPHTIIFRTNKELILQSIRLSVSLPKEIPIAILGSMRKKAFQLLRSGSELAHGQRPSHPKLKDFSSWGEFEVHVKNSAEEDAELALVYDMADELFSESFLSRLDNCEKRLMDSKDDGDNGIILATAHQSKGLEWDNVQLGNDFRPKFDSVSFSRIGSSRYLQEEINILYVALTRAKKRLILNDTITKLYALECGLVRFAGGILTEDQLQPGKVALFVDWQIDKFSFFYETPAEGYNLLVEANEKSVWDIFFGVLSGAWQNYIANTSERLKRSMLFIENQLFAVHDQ
T1 sequence (looked up) 2: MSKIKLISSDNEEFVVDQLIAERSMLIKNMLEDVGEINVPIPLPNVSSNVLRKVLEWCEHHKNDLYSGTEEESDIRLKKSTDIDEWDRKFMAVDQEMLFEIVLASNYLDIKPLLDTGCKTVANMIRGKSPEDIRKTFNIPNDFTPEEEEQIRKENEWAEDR

T2: Fbh1;Skp1 (Schizosaccharomyces …, UniProt Q9USU3;Q9Y709 1-878;1-161, |)
T2 sequence 1: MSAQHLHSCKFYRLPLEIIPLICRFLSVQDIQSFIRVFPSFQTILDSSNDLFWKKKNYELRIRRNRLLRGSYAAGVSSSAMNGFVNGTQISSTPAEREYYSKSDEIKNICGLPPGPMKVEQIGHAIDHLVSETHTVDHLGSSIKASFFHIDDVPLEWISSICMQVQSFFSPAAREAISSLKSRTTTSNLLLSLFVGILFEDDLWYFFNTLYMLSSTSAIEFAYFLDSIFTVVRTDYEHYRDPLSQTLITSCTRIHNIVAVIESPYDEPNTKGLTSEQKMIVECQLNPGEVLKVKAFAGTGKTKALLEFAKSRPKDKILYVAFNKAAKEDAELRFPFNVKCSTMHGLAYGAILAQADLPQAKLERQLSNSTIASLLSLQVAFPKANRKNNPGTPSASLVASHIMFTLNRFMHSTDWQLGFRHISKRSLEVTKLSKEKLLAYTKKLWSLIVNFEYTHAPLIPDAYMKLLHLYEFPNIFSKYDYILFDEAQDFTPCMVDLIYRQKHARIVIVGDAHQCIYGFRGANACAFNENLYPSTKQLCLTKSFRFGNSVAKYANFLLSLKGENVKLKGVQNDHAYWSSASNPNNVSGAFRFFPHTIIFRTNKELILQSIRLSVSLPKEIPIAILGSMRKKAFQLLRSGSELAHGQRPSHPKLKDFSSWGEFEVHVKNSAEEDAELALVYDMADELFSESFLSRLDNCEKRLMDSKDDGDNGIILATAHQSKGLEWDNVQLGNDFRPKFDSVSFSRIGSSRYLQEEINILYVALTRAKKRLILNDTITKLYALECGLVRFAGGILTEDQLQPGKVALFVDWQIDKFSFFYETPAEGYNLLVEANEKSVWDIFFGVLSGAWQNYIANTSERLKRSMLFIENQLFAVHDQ
T2 sequence 2: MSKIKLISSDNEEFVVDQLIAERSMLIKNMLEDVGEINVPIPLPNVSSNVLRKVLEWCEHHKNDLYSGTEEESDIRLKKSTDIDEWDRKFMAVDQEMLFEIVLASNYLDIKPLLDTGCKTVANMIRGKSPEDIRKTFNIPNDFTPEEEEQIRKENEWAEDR


How the values were obtained:
[1] = molecular target: T1, complex of 3FLAG6His-Fbh1 and 6His-Skp1; experiment: co-IP; in vitro; 0.5 µg of each purified protein mixed in 10 µl 25 mM Tris-OAc pH 7.5, 100 mM KCl, 0.5% NP40, 3 mM Mg-acetate, 10 min room temperature then 20 min 4°C; M2 anti-FLAG antibody and Dynabeads Protein G; western blot with anti-Rad51, anti-Sfr1 or anti-M2; conditions: both partners purified
Fbh1;Skp1 = molecular target: T2, Fbh1;Skp1; experiment: EMSA; 3 mM Mg-acetate; preferred substrate; EMSA: 25 mM Tris-acetate pH 8.0, 1 mM DTT, 3 mM Mg-acetate, 5% glycerol, 100 mM KCl, 10 nM DNA, 30 C 10 min; ssDNA beads: 30 mM Tris-HCl pH 7.5, 1 mM DTT, 100 mM NaCl, 3.5 mM MgCl2, 5% glycerol, 0.25% Tween 20, ATP regeneration system, 37 C; conditions: protein: recombinant;recombinant; tags: 6His;6His; copies: 1;1; label: 32P

Row | Binder | binding result [1] | binding result (Fbh1;Skp1)
1 | Rad51 (natural protein, S. pombe, UniProt P36601 1-365, looked up, Rad51 recombinase, Schizosaccharomyces pombe; also called SpRad51) MADTEVEMQVSAADTNNNENGQAQSNYEYDVNVQDEEDEAAAGPMPLQMLEGNGITASDIKKIHEAGYYTVESIAYTPKRQLLLIKGISEAKADKLLGEASKLVPMGFTTATEYHIRRSELITITTGSKQLDTLLQGGVETGSITELFGEFRTGKSQICHTLAVTCQLPIDMGGGEGKCLYIDTEGTFRPVRLLAVADRYGLNGEEVLDNVAYARAYNADHQLELLQQAANMMSESRFSLLVVDSCTALYRTDFSGRGELSARQMHLARFMRTLQRLADEFGIAVVITNQVVAQVDGISFNPDPKKPIGGNILAHSSTTRLSLRKGRGEQRICKIYDSPCLPESEAIFAINSDGVGDPKEIIAPV | binds | 
2 | AGCTATGACCATGATTACGAATTGCTTGGAATCCTGACGAACTGTAG (ssDNA) [F3-d47 (47-mer ssDNA)] |  | binds
